Laboratory results: patent US20220073922, “Aptamers and use thereof” (Aptitude Medical Systems, Inc., published 2022)
Positions count from the first letter of the chain named.

T1: VEGF-165 (VEGFA isoform 165) (Homo sapiens)
T1 chain: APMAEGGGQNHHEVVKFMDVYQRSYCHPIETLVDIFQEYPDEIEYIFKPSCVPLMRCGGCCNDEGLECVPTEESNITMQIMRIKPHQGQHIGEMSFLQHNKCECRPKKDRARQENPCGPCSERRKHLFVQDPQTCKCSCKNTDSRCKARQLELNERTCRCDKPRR

B1: AMSB101 (ssRNA)
RNA: UUUCGCUAGAUGGCUAACACGUAUAUUUGUGGAGAUGCACUAGCGCGCAUAGAUAAGCCAACAAACGUACAUUCUCUGUUAGUAUUUUCUGCG
modifications: 2'-F all positions
B2: AMSB102 (ssRNA)
RNA: CGUGGAGAUGCAUUCUGUCGAAGAUUGGCUAACACGCGCAUAGAUAAGCCAACAAACGUACAUUCUCUGUUAGUAUUUUCUGCG
modifications: 2'-F all positions
B3: AMSB104 (ssRNA)
RNA: CGCAUAGAUAAGCCAACAAACGUACAUUCUCUGUUAGUAUUUUCUGCGUUUCGCUAGAUGGCUAACACGUAUAUUUGUGGAGAUGCACUAGCG
modifications: 2'-F all positions
B4: AMSB105 (ssRNA)
RNA: CGCAUAGAUAAGCCAACAAACGUACAUUCUCUGUUAGUAUUUUCUGCGCGUGGAGAUGCAUUCUGUCGAAGAUUGGCUAACACG
modifications: 2'-F all positions
B5: AMSB106 (ssRNA)
RNA: CGCAUAGAUAAGCCAACAAACGUACAUUCUCUGUUAGUAUUUUCUGCGCGCUAGAUGGCUAACACUAUUGUGGAGAUGCACUAGCG
modifications: 2'-F all positions
B6: AMS0401 (ssRNA)
RNA: GCUCUUCAGCCCCGCGCCGGGUCCCACUCUGCGCCGCUC
modifications: 2'-F all positions
B7: AMS0406 (ssRNA)
RNA: GCUCUUCGGUGUUAACUACCAAUCGUUGAUCGUUUUGCAAAAAAUUCC
modifications: 2'-F all positions
B8: AMS0416 (ssRNA)
RNA: CCAACCGUGUAUCUGUCUUGCUUGCGGCGGUUUUGUUGUG
modifications: 2'-F all positions
B9: AMS0419 (ssRNA)
RNA: AGUUAUUUGGUGGAGAGGAUCCAUUUAGCUUAUACAAUUC
modifications: 2'-F all positions
B10: AMS0420 (ssRNA)
RNA: CCGGCCAUUGGUGGAGAUUAUCCUUUGAGUACGGUUAUUC
modifications: 2'-F all positions
B11: AMS0402 (ssRNA)
RNA: GUGCUUCAUAUCCGUCCCCCCCUUGCUGCG
modifications: 2'-F all positions
B12: AMS0425 (ssRNA)
RNA: CGUGGAGAUGCAUUCUGUCGAGGAUUGGCUAACACGCGAA
modifications: 2'-F all positions
B13: AMS0421.1 (ssRNA)
RNA: UCCUUAGAUGGCUAACACGUAUAUUUGUGGAGAUGCACUA
modifications: 2'-F all positions
B14: AMS0421.3 (ssRNA)
RNA: GCGUAGAUGGCUAACACUAUUGUGGAGAUGCACUACGC
modifications: 2'-F all positions
B15: AMS0421.4 (ssRNA)
RNA: CGCUAGUGGCGAACACGUAUAUUUGUGGCGAUGCACUAGCG
modifications: 2'-F all positions
B16: AMS0421.5 (ssRNA)
RNA: CGCUAGAUGGCCUAACACGUAUAUUUGUGGAGAUGGCACUAGCG
modifications: 2'-F all positions
B17: AMS0427.1 (ssRNA)
RNA: CGCUAGAUGGCUAACACUAUUGUGGAGAUGCACUAGCG
modifications: 2'-OMe at 1-3 and 36-38, 2'-F elsewhere
B18: AMS0427.2 (ssRNA)
RNA: B17 RNA
modifications: LNA at 1-3 and 36-38, 2'-F elsewhere
B19: AMS0425.1 (ssRNA)
RNA: CGUGGAGAUGCAUUCUGUCGAGGAUUGGCUAACACG
modifications: 2'-F all positions
B20: AMS0403 (ssRNA)
RNA: AUUCUGUCUUUUUAAAUAAUGUCCCCUUGUUGCACAUUACAGAA
modifications: 2'-F all positions
B21: AMS0425.3 (ssRNA)
RNA: CGUGGAGAUGCAUUCUUCGAGAUUGGCUAACACG
modifications: 2'-F all positions
B22: AMS0425.8 (ssRNA)
RNA: B19 RNA with A12G, U16C, U26C
modifications: 2'-F all positions
B23: AMS0425.10 (ssRNA)
RNA: CAGGUGGAGAUGCAUUCUGUCGAAGAUUGGCUAACACCUG
modifications: 2'-F all positions
B24: AMS0425.11 (ssRNA)
RNA: GCCGUGGAGAUGCGUUCCGUCGGGAUCGGCUAACACGGC
modifications: 2'-F all positions
B25: AMS0425.12 (ssRNA)
RNA: GCCGUGGAGAUGCGUUCCGUCGAGGAUCGGCUAACACGGC
modifications: 2'-F all positions
B26: AMS0404 (ssRNA)
RNA: UUCUGUCUUUUUAGAUAAUGUCCCCUUGUUGCACAUUACA
modifications: 2'-F all positions
B27: AMS0405 (ssRNA)
RNA: B7 RNA with G8A, G9A, A40G
modifications: 2'-F all positions
B28: AMS0421 (ssRNA)
RNA: UUUCGCUAGAUGGCUAACACGUAUAUUUGUGGAGAUGCACUAGCG
modifications: 2'-F all positions
B29: AMS0430 (ssRNA)
RNA: GCGGAUUGGCUAACACGGUCGACGUGGAGAUGCAUUCCGC
modifications: 2'-F all positions
B30: AMS0407 (ssRNA)
RNA: UCCGCUUGCGGAGCAGCUUCUGUAUUCUGC
modifications: 2'-F all positions
B31: AMS0408 (ssRNA)
RNA: B30 RNA with G16U
modifications: 2'-F all positions
B32: AMS0409 (ssRNA)
RNA: B30 RNA with G16C
modifications: 2'-F all positions
B33: AMS0410 (ssRNA)
RNA: GGAAAACAGUAUAAUGUCUUGUUUCUUCUC
modifications: 2'-F all positions
B34: AMS0411 (ssRNA)
RNA: GGUUUAUCUUAACUUUCUGCUACGAUACAGUUUUUGUUGA
modifications: 2'-F all positions
B35: AMS0525 (ssRNA)
RNA: GCAUAGAUAAGCCAACAAACGUACAUUCUCUGUUAGUAUUUUCUGCACACCGUCGCUUAGU
modifications: 2'-F all positions
B36: AMS0525.3 (ssRNA)
RNA: GCCUUAGAUAAGCCAACAAACGUACAUUCUCUGUUAGUAUUUUCAGGC
modifications: 2'-F all positions
B37: AMS0525.4 (ssRNA)
RNA: CCGAUAAGCCAACAAACGUACAUUCUCUGUUAGUAUUCGG
modifications: 2'-F all positions
B38: AMS0525.5 (ssRNA)
RNA: B36 RNA with G1C, C2G, U4A, A45U, G47C, C48G
modifications: 2'-OMe at 1-4 and 45-48, 2'-F elsewhere
B39: AMS0525.6 (ssRNA)
RNA: B36 RNA with G1C, C2G, U4A, A45U, G47C, C48G
modifications: LNA at 1-4 and 45-48, 2'-F elsewhere

Target: T2, Angiopoietin-2 (Ang2) (Homo sapiens, UniProt O15123 O15123:19-496)
Experiment: flow
Settings: tags: His tag, R&D Systems 623-AN; label: biotin

T2 sequence (O15123 19-496, one chain of several): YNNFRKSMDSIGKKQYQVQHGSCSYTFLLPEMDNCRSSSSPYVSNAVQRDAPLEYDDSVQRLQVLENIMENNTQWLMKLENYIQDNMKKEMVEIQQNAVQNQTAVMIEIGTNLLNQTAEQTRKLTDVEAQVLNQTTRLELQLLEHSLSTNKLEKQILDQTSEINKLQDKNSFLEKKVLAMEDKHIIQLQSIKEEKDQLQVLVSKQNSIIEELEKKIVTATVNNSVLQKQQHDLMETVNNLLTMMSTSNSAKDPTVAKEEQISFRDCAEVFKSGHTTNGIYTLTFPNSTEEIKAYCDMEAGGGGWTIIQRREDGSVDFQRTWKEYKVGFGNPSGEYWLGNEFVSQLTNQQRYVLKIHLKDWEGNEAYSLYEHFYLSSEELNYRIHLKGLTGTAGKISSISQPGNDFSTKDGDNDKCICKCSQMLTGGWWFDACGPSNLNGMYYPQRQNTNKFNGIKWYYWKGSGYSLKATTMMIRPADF

Binder	Kd
B1	0.138 nM
B2	0.056 nM
B3	0.159 nM
B4	0.052 nM
B5	0.031 nM

Target: T3, VEGF-121 (VEGFA isoform 121) (Homo sapiens, UniProt P15692 SEQ:1-121)
Experiment: flow
Settings: chain copies: 2 (inferred); label: biotin

Binder	Kd
B1	0.125 nM
B2	0.092 nM
B3	0.087 nM
B4	0.123 nM
B5	0.043 nM

Target: T1, VEGF-165 (VEGFA isoform 165)
Experiment: flow; PBSMCT, 37 C
Settings: chain copies: 2 (inferred); label: biotin
Procedure: (§1) Truncated and modified variants of the anti-VEGF aptamers of the present disclosure were prepared by LGC Biosearch Technologies (Novato, Calif.), and their binding affinity to corresponding targets were examined. Briefly, the equilibrium binding constants of the enriched libraries were measured using magnetic bead partitioning. Biotinylated anti-VEGF aptamers were conjugated to the 1 μm streptavidin-coated MyOne Streptavidin Cl magnetic beads (Thermo Fisher Scientific, 65002). Binding assays were performed by incubating fixed concentration of anti-VEGF aptamer (0.01 nM) and target protein at concentrations ranging from 10⁻¹² to 10⁻⁸ M in PBSMCT buffer (DPBS, pH 7.2 with 2.5 mM MgCl₂, 1 mM CaCl₂) and 0.01% TWEEN-20) at 37° C. for 90 minutes. Bound target protein was partitioned by magnetic separation and subsequently labeled via fluorescent anti-VEGF or anti-His-tag antibody. The fraction of anti-VEGF aptamer bound was quantified by flow cytometry (BD Accuri C6 Plus). Raw binding data were corrected for nonspecific background binding of target protein to empty magnetic beads. The fraction of bound anti-VEGF aptamer was plotted as a function of protein concentration and a non-linear curve-fitting algorithm (Langmuir one-site binding model) was used to extract equilibrium binding constants (KD values) from the data (FIG. 1).

Binder	Kd
B6	0.087 nM
B7	0.324 nM
B8	29.4 nM
B9	0.99 nM
B10	0.87 nM
B11	0.098 nM
B12	0.102 nM
B13	0.101 nM
B14	0.098 nM
B15	1.92 nM
B16	0.879 nM
B17	0.092 nM
B18	0.087 nM
B19	0.356 nM
B20	0.111 nM
B21	0.981 nM
B22	0.876 nM
B23	0.652 nM
B24	0.349 nM
B25	0.678 nM
B26	0.419 nM
B27	1.01 nM

Same assay, conditions: chain copies: 2 (inferred); label: biotin; stem-loop with bulges

Binder	Kd
B28	0.096 nM
B29	0.176 nM

Target: T3, VEGF-121 (VEGFA isoform 121)
Experiment: flow; PBSMCT, 37 C
Settings: chain copies: 2 (inferred); label: biotin
Procedure: as §1

Binder	Kd
B30	0.761 nM
B31	10.1 nM
B32	14.2 nM
B33	11.8 nM
B34	1.19 nM
B8	0.654 nM
B9	0.095 nM
B10	0.082 nM
B12	0.092 nM
B13	0.049 nM
B14	0.051 nM
B15	0.471 nM
B16	0.511 nM
B17	0.047 nM
B18	0.043 nM
B19	0.294 nM
B21	0.245 nM
B22	0.287 nM
B23	0.107 nM
B24	0.124 nM
B25	0.126 nM

Same assay, conditions: chain copies: 2 (inferred); label: biotin; stem-loop with bulges

Binder	Kd
B28	0.045 nM
B29	0.104 nM

Target: T2, Angiopoietin-2 (Ang2)
Experiment: flow; PBSMCT, 37 C
Settings: tags: His tag, R&D Systems 623-AN; label: biotin
Procedure: Various mutations and truncated variants of a representative anti-Ang2 aptamer (AMS0525) were obtained and their binding affinity to Ang2 were measured using magnetic bead partitioning. Biotinylated anti-Ang2 aptamers were conjugated to the 1 μm streptavidin-coated MyOne Streptavidin Cl magnetic beads (Thermo Fisher Scientific, 65002). Binding assays were performed by incubating fixed concentration of aptamer (0.01 nM) and Ang2 protein at concentrations ranging from 10⁻¹² to 10⁻⁸ M in PBSMCT buffer (DPBS, pH 7.2 with 2.5 mM MgCl₂, 1 mM CaCl₂) and 0.01% TWEEN-20) at 37° C. for 90 minutes. Bound target protein was partitioned by magnetic separation and subsequently labeled via fluorescent anti-His-tag antibody. The fraction of anti-Ang2 aptamer bound was quantified by flow cytometry (BD Accuri C6 Plus). Raw binding data were corrected for nonspecific background binding of target protein to empty magnetic beads. The fraction of bound anti-Ang2 aptamer was plotted as a function of protein concentration and a non-linear curve-fitting algorithm (Langmuir one-site binding model) was used to extract equilibrium binding constants (KD values) from the data (FIG. 4A).

Binder	Kd
B35	0.404 nM
B36	0.033 nM
B37	> 1 nM
B38	0.043 nM
B39	0.029 nM
